The supplement of paper PMC10567573

B1: LOC100129726 (parent)
chain: AKAADSPTRNDLESGLGHFSLRVH
B2: TFE3 (parent)
chain: FHLGLEDILMEEEEGVVGGLSGGA

Variants of: B1
Assay: protein stability index of a GFP-peptide fusion (GPS, HEK-293T) (PSI 1-6); higher = more stable
Conditions: c terminus: a fixed tail appended
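Note: lentivirally expressed fusions sorted by FACS into six bins by GFP to DsRed ratio, PSI derived from sequencing read proportions per bin multiplied by bin number.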

Protein stability index, by site and new letter:
V23: R 4.03 | T 3.49 | M 3.29 | E 4.69 | N 3.43 | D 4.68 | G 4.16 | K 4.43 | C 3.45 | Q 3.58 | F 2.14 | Y 2.61 | I 2.42 | W 2.14
L12: H 3.57 | E 4 | C 2.82 | T 2.91 | N 4.16 | G 3.52 | P 3.51 | W 2.6 | Y 1.93 | K 3.92
T8: C 2.07 | L 2.13 | S 2.74 | D 3.31 | I 2.45 | R 2.53 | V 4.01 | P 3.38 | N 3.36
R22: E 3.92 | Y 2.31 | A 3.47 | K 3.59 | P 4 | S 2.98 | I 2.61 | T 2.8 | G 3.5 | M 2.61 | N 3.62 | V 2.71
S6: T 3.39 | Q 3.76 | K 2.98 | A 2.45 | N 3.58 | M 2.16 | C 2.71 | V 2.77 | H 2.95 | L 2.16 | G 2.72 | D 3.44 | F 2.74 | R 3.08
P7: L 3.09 | E 3.28 | S 2.81 | A 3.49 | N 3.27 | T 3.2 | H 3.45 | K 2.92 | M 2.57 | D 3.64 | I 2.75 | V 2.7 | W 1.65
D11: N 2.47 | F 2.75 | H 2.42 | T 2.3 | E 3.9 | K 2.72 | R 2.54 | A 3.1 | M 2.19
L21: F 2.38 | Y 3.06 | M 3.6 | W 3.45 | R 2.98 | Q 4 | G 4.79 | C 4.2
G17: V 3.13 | A 2.84 | H 2.57 | N 3.18 | C 2.85 | R 2.89 | I 2.28 | Y 2.37 | P 3.06 | E 3.58
E13: T 2.59 | Y 1.38 | S 2.8 | K 2.08 | F 2.19 | V 2.52 | D 2.95 | W 1.85 | R 2.38
N10: C 2.13 | Q 3.87 | R 3.17 | S 3.17 | W 1.88 | Y 1.97 | A 3.06 | I 1.78 | L 2.88 | K 2.98 | D 3.61 | T 2.79 | G 2.77
A1: V 3.39 | D 3.88 | C 2.1 | E 3.47 | L 2.9 | K 3.34 | I 2.48 | H 3.27 | W 2.33 | N 3.25 | Q 3.38 | G 3.1
H24: K 3.92 | A 2.92 | Y 1.58 | M 2.25 | F 2.32 | N 4.15 | G 2.64
R9: P 3.07 | T 3.09 | G 3.84 | Q 3.22 | N 3.51 | S 3.25 | K 4.17 | M 3.46 | Y 2.7 | A 3.47 | L 2.73 | V 2.71
G15: Y 2.4 | L 2.37 | V 2.48 | I 1.86 | D 3.51 | N 2.82 | K 2.93 | A 2.4 | S 2.86 | H 3.26
S20: W 2.25 | R 2.19 | G 3.11 | M 2.87 | P 3.81 | D 3.46 | T 3.1 | E 3.72 | I 1.48
A3: L 2.6 | S 3.49 | M 2.27 | W 2.21 | D 3.44 | I 2.69 | Q 3.03 | Y 2.26 | F 2.77 | V 2.28 | K 3.23
A4: F 2.31 | H 3.36 | N 3.04 | W 2.16 | E 4.12 | Y 2.42 | T 3.7 | G 2.86 | K 3.09 | L 2.95 | C 3.05
D5: L 2.56 | F 2.17 | R 2.67 | N 2.81 | Q 3.15 | E 3.16 | G 2.9 | M 3.06 | A 2.84 | T 2.61 | V 2.54 | H 2.63 | I 2.65
S14: E 3.81 | K 3.36 | V 2.63 | I 2.38 | L 2.57 | T 2.94 | Y 3.97 | C 2.34 | D 3.85
L16: A 3.97 | E 4.23 | S 3.77 | Y 2.84 | H 3.44 | D 3.82 | T 3.8 | N 3.67 | R 3.78 | Q 3.28 | G 3.58
F19: P 4.33 | K 4.63 | R 4.28 | L 3.31 | E 4.6 | D 4.6 | Y 3.16 | N 4.24 | S 4.61
K2: V 3.18 | L 3.03 | G 2.71 | A 3.68 | T 3.27 | W 1.66 | P 3.23
H18: L 2.38 | W 1.59 | N 3.53 | F 2.1 | A 3.25 | Y 2.66 | R 3.08 | G 3.84 | I 3.13 | S 3.73 | E 3.45

Variants of: B2
Assay: as above
Conditions: c terminus: a fixed tail appended

Protein stability index of substitutions, site by site:
S21: W 2.3 | N 3.6 | Q 4.07 | P 3.35 | G 4.07 | C 3.48 | L 3.01 | D 3.95 | R 3.7 | A 3.9 | H 3.44 | M 3.54 | V 3.81 | T 3.54 | K 3.48 | I 3.27 | E 4.65 | Y 2.77
A24: D 4.17 | V 3.74 | K 3.98 | P 3.07 | R 3.86 | G 4.32 | F 2.39 | Y 2.68 | M 3.12 | E 3.9 | N 3.65 | T 3.52 | C 3.73 | W 1.75 | Q 4.24 | I 2.66 | H 3.25 | L 2.94 | S 3.82
L20: V 4.69 | T 4.11 | W 3.02 | S 4.52 | Q 4.47 | Y 3.41 | R 3.99
G23: V 3.98 | D 4.04 | W 2.15 | K 3.89 | M 3.19 | R 3.29 | H 3.43 | S 3.52 | L 3.58 | F 2.7 | N 3.96 | P 4 | C 3.21 | E 4.87 | I 3.17 | T 3.56 | A 3.37 | Q 3.89
G22: T 4.26 | E 4.01 | P 3.64 | K 4.05 | D 3.5 | N 3.72 | V 3.9 | I 3.19 | Q 3.67 | W 2.85 | F 3.34 | R 3.39 | M 3.59 | Y 2.28 | A 3.81 | L 3.31 | S 3.57 | C 3.3 | H 3.8
